Experimental data published in patent US7119182 (University of California, dated 2006).
Square brackets hold non-standard residues; d marks the D form. Ends that are not written are not given here. * marks the point of attachment. SMeMpr = S-methyl-3-mercaptopropionic acid, CSCCC(=O)*; 2‑Mba = 2-mercaptobenzoic acid, O=C(c1ccccc1S)*; Cha = N[C@@H](CC1CCCCC1)C(=O)O; Mpa = O=C(O)CCS

T1: human thrombin receptor (human, UniProt P25116 42-425)
T1 chain: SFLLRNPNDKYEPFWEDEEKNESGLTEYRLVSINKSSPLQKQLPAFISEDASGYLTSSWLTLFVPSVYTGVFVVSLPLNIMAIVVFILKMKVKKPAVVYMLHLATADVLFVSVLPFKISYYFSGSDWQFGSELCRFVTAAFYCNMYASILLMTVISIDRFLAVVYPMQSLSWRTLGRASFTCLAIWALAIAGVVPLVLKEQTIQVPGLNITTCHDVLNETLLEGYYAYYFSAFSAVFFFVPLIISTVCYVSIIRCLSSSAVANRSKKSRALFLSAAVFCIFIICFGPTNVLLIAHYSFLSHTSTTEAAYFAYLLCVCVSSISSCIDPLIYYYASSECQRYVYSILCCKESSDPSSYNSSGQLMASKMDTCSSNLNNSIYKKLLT

T2: mutant thrombin receptor with the amino acid substitution R41A (human, UniProt P25116 22-425, limits assumed)
T2 chain: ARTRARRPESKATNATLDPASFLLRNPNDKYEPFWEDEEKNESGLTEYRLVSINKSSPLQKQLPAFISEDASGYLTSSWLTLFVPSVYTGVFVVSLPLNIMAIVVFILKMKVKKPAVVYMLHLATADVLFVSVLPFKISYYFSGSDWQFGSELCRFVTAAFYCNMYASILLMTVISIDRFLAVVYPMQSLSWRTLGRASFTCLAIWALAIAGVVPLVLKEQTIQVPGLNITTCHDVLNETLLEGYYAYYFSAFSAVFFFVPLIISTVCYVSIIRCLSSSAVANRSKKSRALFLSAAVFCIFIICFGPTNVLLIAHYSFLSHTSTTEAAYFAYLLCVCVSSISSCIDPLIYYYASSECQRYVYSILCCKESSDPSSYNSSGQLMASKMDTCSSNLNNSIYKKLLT

B1: Mpr-FLLRNPNDKYE-NH2 (peptide)
peptide: [Mpa]FLLRNPNDKYE-NH2
SMILES: CC(C)C[C@H](NC(=O)[C@H](Cc1ccccc1)NC(=O)CCS)C(=O)N[C@@H](CC(C)C)C(=O)N[C@@H](CCCNC(=N)N)C(=O)N[C@@H](CC(N)=O)C(=O)N1CCC[C@H]1C(=O)N[C@@H](CC(N)=O)C(=O)N[C@@H](CC(=O)O)C(=O)N[C@@H](CCCCN)C(=O)N[C@@H](Cc1ccc(O)cc1)C(=O)N[C@@H](CCC(=O)O)C(N)=O
B2: (2-Mba)-F(Cha)(Cha)RKPNDK-NH2 (peptide)
peptide: {2‑Mba}-F[Cha][Cha]RKPNDK-NH2
SMILES: N=C(N)NCCC[C@H](NC(=O)[C@H](CC1CCCCC1)NC(=O)[C@H](CC1CCCCC1)NC(=O)[C@H](Cc1ccccc1)NC(=O)c1ccccc1S)C(=O)N[C@@H](CCCCN)C(=O)N1CCC[C@H]1C(=O)N[C@@H](CC(N)=O)C(=O)N[C@@H](CC(=O)O)C(=O)N[C@@H](CCCCN)C(N)=O
B3: (SMeMpr)-F(Cha)(Cha)RKPNDK-NH2 (peptide)
peptide: SMeMpr-F[Cha][Cha]RKPNDK-NH2
SMILES: CSCCC(=O)N[C@@H](Cc1ccccc1)C(=O)N[C@@H](CC1CCCCC1)C(=O)N[C@@H](CC1CCCCC1)C(=O)N[C@@H](CCCNC(=N)N)C(=O)N[C@@H](CCCCN)C(=O)N1CCC[C@H]1C(=O)N[C@@H](CC(N)=O)C(=O)N[C@@H](CC(=O)O)C(=O)N[C@@H](CCCCN)C(N)=O
B4: Mpr-F(Cha) (Cha)RKPNDA-NH2 (peptide)
peptide: [Mpa]F[Cha][Cha]RKPNDA-NH2
SMILES: C[C@H](NC(=O)[C@H](CC(=O)O)NC(=O)[C@H](CC(N)=O)NC(=O)[C@@H]1CCCN1C(=O)[C@H](CCCCN)NC(=O)[C@H](CCCNC(=N)N)NC(=O)[C@H](CC1CCCCC1)NC(=O)[C@H](CC1CCCCC1)NC(=O)[C@H](Cc1ccccc1)NC(=O)CCS)C(N)=O

Columns and labels:
Assay in all cases: cell-based or functional assay
thrombin = thrombin (UniProt P00734 364-622; P00734 328-363)
human thrombin receptor [1] = target: T1, human thrombin receptor
human thrombin receptor [2] = target: T1, human thrombin receptor
[3] = target: T2, mutant thrombin receptor with the amino …

Binder | IC50 (50% inhibition of thrombin-induced platelet activation or aggregation) (human thrombin receptor [1]) [µM] | other results
LDPRPFLLRNPNDKYEPFWEDEEKNES | – | IC50, inhibition of thrombin-induced platelet ATP secretion (peptide preincubated with thrombin) (thrombin): ~0.5 µM
B1 | 108 | –
{Cam‑Mpr}-FLLR-NH2 [[Cam-Mpr]-FLLR-NH2] | 1000 | –
[Mpa]FLLRNPNDK [Mpr-FLLRNPNDK] | 80 | –
LDPRPFLL | – | IC50, inhibition of thrombin-induced platelet ATP secretion (peptide preincubated with thrombin) (thrombin): ~200 µM
Pivaloyl-FLLR-NH2 [Pivaloyl-FLLR-NH2] | 1000 | –
SFLLRNPNDKYEPF ["new amino-terminal" peptide SFLLRNPNDKYEPF] | – | Fold increase in 45Ca (release by oocytes expressing receptor cRNA); “SFLL” peptide 40 µM (human thrombin receptor [2]): 32 fold; Fold increase in 45Ca (release by oocytes expressing receptor cRNA); “SFLL” peptide 200 µM (human thrombin receptor [2]): 42 fold; Fold increase in 45Ca (release by oocytes expressing receptor cRNA); “SFLL” peptide 200 µM [3]: 53 fold
B2 | 50 | –
B3 | 10 | –
B4 | 50 | –
